Assay results reported in patent US20240002501A1 (Memorial Sloan Kettering, published 2024).
Like-named read-outs stand apart in the source and are kept apart here.

Assays:
[1] = target: T1, L1-CAM on L1-CAM(+) human tumor cells (human, UniProt P32004 20-1257); test: cell-based or functional assay
[2] = target: T1, L1-CAM on L1-CAM(+) human tumor cells; test: cell-based or functional assay; remark: listed apart in the source
CD3 on CD3(+) T cells = target: T2, CD3 on CD3(+) T cells (UniProt P07766 23-207); test: FACS immunostaining of CD3(+) T cells
T2 construct: whole, on cells; CD3 is a complex of several chains
T2 sequence (P07766 23-207): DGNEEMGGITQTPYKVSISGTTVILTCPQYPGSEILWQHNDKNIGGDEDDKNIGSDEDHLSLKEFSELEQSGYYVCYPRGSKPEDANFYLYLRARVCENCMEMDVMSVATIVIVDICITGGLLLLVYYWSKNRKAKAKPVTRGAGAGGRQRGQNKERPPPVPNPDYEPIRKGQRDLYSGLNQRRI

L1-CAM-Fc [3] = target: T3, L1-CAM-Fc (UniProt P32004 20-1120, limits assumed); test: SPR (Biacore T100), L1-CAM-Fc immobilised on CM5 chip
T3 construct: also called antigen L1-CAM-Fc; not shown: Fc part
T3 sequence (P32004 20-1120 limits assumed): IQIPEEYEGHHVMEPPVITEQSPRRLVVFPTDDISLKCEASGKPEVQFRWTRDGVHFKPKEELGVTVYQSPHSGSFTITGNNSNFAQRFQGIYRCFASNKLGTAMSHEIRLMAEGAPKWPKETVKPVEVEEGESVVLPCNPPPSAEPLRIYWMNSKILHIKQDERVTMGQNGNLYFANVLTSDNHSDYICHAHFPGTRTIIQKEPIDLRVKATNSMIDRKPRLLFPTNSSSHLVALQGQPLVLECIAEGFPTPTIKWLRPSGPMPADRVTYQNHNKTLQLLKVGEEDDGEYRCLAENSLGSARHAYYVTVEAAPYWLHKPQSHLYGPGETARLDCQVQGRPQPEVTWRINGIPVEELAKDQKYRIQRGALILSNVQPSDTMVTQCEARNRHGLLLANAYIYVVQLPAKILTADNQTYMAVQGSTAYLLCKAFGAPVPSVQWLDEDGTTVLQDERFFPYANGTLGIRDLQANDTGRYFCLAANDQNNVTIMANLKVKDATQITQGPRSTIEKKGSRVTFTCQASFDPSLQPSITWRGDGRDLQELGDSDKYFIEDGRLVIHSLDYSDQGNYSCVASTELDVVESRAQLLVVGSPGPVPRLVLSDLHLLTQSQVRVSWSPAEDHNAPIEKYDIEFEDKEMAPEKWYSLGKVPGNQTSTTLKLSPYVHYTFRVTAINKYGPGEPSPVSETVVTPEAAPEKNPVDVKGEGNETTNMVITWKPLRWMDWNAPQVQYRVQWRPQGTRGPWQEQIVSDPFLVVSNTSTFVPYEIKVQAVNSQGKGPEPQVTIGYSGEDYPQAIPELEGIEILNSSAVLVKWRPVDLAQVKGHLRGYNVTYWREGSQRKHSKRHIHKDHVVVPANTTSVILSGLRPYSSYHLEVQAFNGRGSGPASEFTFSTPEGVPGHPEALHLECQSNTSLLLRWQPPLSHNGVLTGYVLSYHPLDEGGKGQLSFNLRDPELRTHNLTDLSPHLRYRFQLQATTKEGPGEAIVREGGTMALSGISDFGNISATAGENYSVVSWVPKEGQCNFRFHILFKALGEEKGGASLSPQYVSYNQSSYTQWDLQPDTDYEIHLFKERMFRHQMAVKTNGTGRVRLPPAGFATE
Description: (§1) In Vitro Binding Kinetics by Biacore T-100 Biosensor (GE Healthcare, Uppsala, Sweden). CM5 sensor chip (Research grade) and related reagents were purchased from Biacore USA (Piscataway, NJ). Antigen L1-CAM-Fc or L1-CAM-His was directly immobilized onto the CM5 sensor chip according to the manufacturer's instructions. Purified monoclonal antibodies (MoAbs) (mouse, chimeric IgG1 and IgG4, and humanized IgG1 and IgG4 versions of E71 and E72, and their IgG1n glycoforms) were diluted in HBS-EP buffer at varying concentrations (41.7˜666.7 nM) prior to analysis. Samples were injected over the sensor surface at a flow rate of 30 μl/min over 1 min. Association time was set for 1 min, dissociation time was set for from 5 min to 15 min. At the end of each cycle, the surface was regenerated using 50 mM NaOH at a flow rate of 50 μl/min over 1 min. The data were analyzed by the bivalent analyte model and default parameter setting for the rate constants using the Biacore T-100 evaluation software, and the apparent association on rate constant (kₒₙ), dissociation off rate constant (koff) and equilibrium dissociation constant (Kd=koff/kₒₙ) were calculated.
The binding of huE71-BsAb and huE72-BsAb to both target cells and effector cells was tested by FACS immunostaining. huE71-BsAb was equally efficient as parental huE71 in binding to L1-CAM(+) neuroblastoma BE(2)C, whereas the binding of huE72-BsAb to BE(2)C was half of that observed with huE71-BsAb (FIG. 38(A)). For binding to CD3(+) T cells, both huE71-BsAb and huE72-BsAb were less efficient compared to huOKT3 IgG1; around 20 fold weaker than huOKT3 (FIG. 38(B)). The reduced avidity of the light chain-anchored scFv of the BsAbs for T cells was attributable in part to the spatial constraints of this format, but is advantageous for minimizing cytokine release especially when target cells were not present.

L1-CAM-Fc [4] = target: T3, L1-CAM-Fc; test: as above; remark: listed apart in the source
Description: as §1

L1-CAM-His = target: T4, L1-CAM-His; test: SPR (Biacore T100), L1-CAM-His immobilised on CM5 chip
T4 construct: recombinant soluble His-tagged antigen immobilised on the CM5 chip; also called antigen L1-CAM-His
T4 sequence (P32004 20-1120): as the sequence (P32004 20-1120 limits assumed) above
Description: as §1

T1 sequence (P32004 20-1257 limits assumed): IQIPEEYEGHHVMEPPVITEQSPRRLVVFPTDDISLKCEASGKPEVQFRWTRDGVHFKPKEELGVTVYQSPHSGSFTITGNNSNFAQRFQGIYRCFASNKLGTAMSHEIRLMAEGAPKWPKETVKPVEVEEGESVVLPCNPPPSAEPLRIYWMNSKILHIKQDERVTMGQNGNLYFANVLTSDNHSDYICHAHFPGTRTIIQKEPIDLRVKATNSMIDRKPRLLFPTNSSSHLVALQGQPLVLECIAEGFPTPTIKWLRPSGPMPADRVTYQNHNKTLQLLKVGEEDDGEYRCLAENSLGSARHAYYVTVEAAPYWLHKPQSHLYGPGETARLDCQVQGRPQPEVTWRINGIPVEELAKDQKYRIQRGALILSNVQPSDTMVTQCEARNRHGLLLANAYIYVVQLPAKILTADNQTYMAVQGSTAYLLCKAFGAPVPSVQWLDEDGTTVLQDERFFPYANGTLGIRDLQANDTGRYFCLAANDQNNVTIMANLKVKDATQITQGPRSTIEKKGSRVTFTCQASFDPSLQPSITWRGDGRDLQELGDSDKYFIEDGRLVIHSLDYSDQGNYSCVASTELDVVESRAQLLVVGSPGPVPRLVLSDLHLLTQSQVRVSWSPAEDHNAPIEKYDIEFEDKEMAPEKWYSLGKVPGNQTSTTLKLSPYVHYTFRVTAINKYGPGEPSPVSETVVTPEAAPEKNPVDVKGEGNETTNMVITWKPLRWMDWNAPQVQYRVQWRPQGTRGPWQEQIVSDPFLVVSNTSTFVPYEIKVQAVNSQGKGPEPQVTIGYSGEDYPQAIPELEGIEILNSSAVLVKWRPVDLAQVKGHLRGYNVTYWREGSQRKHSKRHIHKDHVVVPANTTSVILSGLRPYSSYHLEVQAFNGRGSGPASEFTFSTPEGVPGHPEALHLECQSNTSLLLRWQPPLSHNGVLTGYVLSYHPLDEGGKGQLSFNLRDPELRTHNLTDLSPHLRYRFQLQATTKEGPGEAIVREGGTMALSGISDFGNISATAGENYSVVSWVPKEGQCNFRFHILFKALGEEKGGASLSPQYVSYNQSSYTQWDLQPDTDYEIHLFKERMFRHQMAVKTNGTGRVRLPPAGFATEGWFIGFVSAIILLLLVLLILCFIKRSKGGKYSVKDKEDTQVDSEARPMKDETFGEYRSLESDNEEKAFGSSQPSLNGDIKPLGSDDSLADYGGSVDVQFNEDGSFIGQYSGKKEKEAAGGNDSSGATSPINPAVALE

Kd (L1-CAM-Fc [3]) [nM]	koff (L1-CAM-Fc [3]) [s⁻¹]	kon (L1-CAM-Fc [3]) [M⁻¹ s⁻¹]	Kd (L1-CAM-Fc [4]) [nM]	Kd (L1-CAM-His) [nM]	Binder	other results
5.28	0.000189	35800	–	–	huE72-BsAb (huE72-huOKT3) (bispecific antibody, human IgG1, kappa, N297A, IgG-scFv format with huOKT3 scFv on the light chain; also called humanized E72-BsAb) heavy: not shown light: DIQMTQSPSSLSVSVGDRVTITCKANEDINNRLAWYQQKPGKAPKLLISGATNLVTGVPSRFSGSGSGTDYTLTISSLQPEDFATYYCQQYWSTPFTFGQGTELEIKRTVAAPSVFIFPPSDEQLKSGTASVVCLLNNFYPREAKVQWKVDNALQSGNSQESVTEQDSKDSTYSLSSTLTLSKADYEKHKVYACEVTHQGLSSPVTKSFNRGECTSGGGGSGGGGSGGGGSQVQLVQSGGGVVQPGRSLRLSCKASGYTFTRYTMHWVRQAPGKCLEWIGYINPSRGYTNYNQKFKDRFTISRDNSKNTAFLQMDSLRPEDTGVYFCARYYDDHYSLDYWGQGTPVTVSSGGGGSGGGGSGGGGSGGGGSGGGGSGGGGSDIQMTQSPSSLSASVGDRVTITCSASSSVSYMNWYQQTPGKAPKRWIYDTSKLASGVPSRFSGSGSGTDYTFTISSLQPEDIATYYCQQWSSNPFTFGCGTKLQITR	T cell cytotoxicity EC50, 4-hour 51Cr release assay, activated T cells (E:T ratio=10:1), IMR32-luciferase cell line [1]: 0.05 nM; EC50 of T cell cytotoxicity (4 h 51Cr release, E:T 10:1) on BE(1)N neuroblastoma cells (L1CAM MFI 614) [2]: 0.014 nM; EC50 of T cell cytotoxicity (4 h 51Cr release, E:T 10:1) on BE(2)C neuroblastoma cells (L1CAM MFI 608) [2]: 0.05 nM; EC50 of T cell cytotoxicity (4 h 51Cr release, E:T 10:1) on BE(2)S neuroblastoma cells (L1CAM MFI 166) [2]: 0.251 nM; EC50 of T cell cytotoxicity (4 h 51Cr release, E:T 10:1) on HTB24 breast CA cells (L1CAM MFI 431) [2]: 0.027 nM; EC50 of T cell cytotoxicity (4 h 51Cr release, E:T 10:1) on HTB26 breast CA cells (L1CAM MFI 33) [2]: 0.056 nM; EC50 of T cell cytotoxicity (4 h 51Cr release, E:T 10:1) on IMR32 LUC neuroblastoma cells (L1CAM MFI 285) [2]: 0.05 nM; EC50 of T cell cytotoxicity (4 h 51Cr release, E:T 10:1) on MCF7 breast CA cells (L1CAM MFI 54) [2]: 0.1 nM; EC50 of T cell cytotoxicity (4 h 51Cr release, E:T 10:1) on NB1691 neuroblastoma cells (L1CAM MFI 742) [2]: 0.031 nM; EC50 of T cell cytotoxicity (4 h 51Cr release, E:T 10:1) on NMB7 neuroblastoma cells (L1CAM MFI 224) [2]: 0.046 nM; EC50 of T cell cytotoxicity (4 h 51Cr release, E:T 10:1) on SKMEL5 melanoma cells (L1CAM MFI 269) [2]: 0.027 nM; EC50 of T cell cytotoxicity (4 h 51Cr release, E:T 10:1) on SKMEL28 melanoma cells (L1CAM MFI 184) [2]: 0.14 nM; EC50 of T cell cytotoxicity (4 h 51Cr release, E:T 10:1) on SKNMM LUC neuroblastoma cells (L1CAM MFI 598) [2]: 0.071 nM; EC50 of T cell cytotoxicity (4 h 51Cr release, E:T 10:1) on SKNSH neuroblastoma cells (L1CAM MFI 23) [2]: 0.158 nM; fold weaker binding than huOKT3 IgG1 (CD3 on CD3(+) T cells): ~20 fold
1.88	0.000139	74000	0.252	0.27	huE72-IgG1 (huE72 H1/L2) (antibody, V domains shown, Human IgG1; also called humanized E72 IgG1) VH: QVQLVQPGAEVVKPGASVKLSCKASGYTFTGYWMHWVKQAPGQGLEWIGEINPSNGRTNYNERFKSKATLTVDKSITTAFMELSRLRSDDTAVYFCARDYYGTSYNFDYWGQGTLLTVSS VL: DIQMTQSPSSLSVSVGDRVTITCKANEDINNRLAWYQQKPGKAPKLLISGATNLVTGVPSRFSGSGSGTDYTLTISSLQPEDFATYYCQQYWSTPFTFGQGTELEIKR	–
–	–	–	0.353	0.355	E72-H2L1 (antibody, human IgG1, kappa, V domains shown, also called huE72 H2/L1) VH: QVQLVQPGAEVKKPGASVKLSCKASGYTFTGYWMHWVRQAPGQGLEWIGEINPSNGRTNYNERFKSRATLTVDKSISTAYMELSRLRSDDTAVYFCARDYYGTSYNFDYWGQGTLLTVSS VL: DIQMTQSSSSFSVSVGDRVTITCKANEDINNRLAWYQQKPGKSPRLLISGATNLVTGVPSRFSGSGSGTDYTLTISSLQAEDFATYYCQQYWSTPFTFGQGTELEIKR	–
–	–	–	0.0893	0.114	E72-H1L1 (antibody, human IgG1, kappa, V domains shown, also called huE72 H1/L1) VH: QVQLVQPGAEVVKPGASVKLSCKASGYTFTGYWMHWVKQAPGQGLEWIGEINPSNGRTNYNERFKSKATLTVDKSITTAFMELSRLRSDDTAVYFCARDYYGTSYNFDYWGQGTLLTVSS VL: DIQMTQSSSSFSVSVGDRVTITCKANEDINNRLAWYQQKPGKSPRLLISGATNLVTGVPSRFSGSGSGTDYTLTISSLQAEDFATYYCQQYWSTPFTFGQGTELEIKR	–
–	–	–	0.536	0.667	E72-H2L2 (antibody, human IgG1, kappa, V domains shown, also called huE72 H2/L2) VH: QVQLVQPGAEVKKPGASVKLSCKASGYTFTGYWMHWVRQAPGQGLEWIGEINPSNGRTNYNERFKSRATLTVDKSISTAYMELSRLRSDDTAVYFCARDYYGTSYNFDYWGQGTLLTVSS VL: DIQMTQSPSSLSVSVGDRVTITCKANEDINNRLAWYQQKPGKAPKLLISGATNLVTGVPSRFSGSGSGTDYTLTISSLQPEDFATYYCQQYWSTPFTFGQGTELEIKR	–
–	–	–	2.72	–	huE71-H2L2 (antibody, human IgG1, kappa, V domains shown) VH: QVQLVQSGSELKKPGASVKLSCKASGYTFTSYWMQWVRQAPGQGLEWIGEINPSNGRTNYNEMFKSRAVLSVDTSVSTAYMQLCSLKAEDTAVYYCALYDGYYAMDYWGQGTLVTVSS VL: DIVMTQSPDSLAVSLGERVTMNCKSSQSLLYSSNQKNYLAWYQQKPGQPPKLLIYWASTRESGVPDRFSGSGSGTDFTLTISSLQAEDVALYYCQQYHSYPFTFGQGTKLEIKR	–
2.23	0.000199	89300	0.314	–	E71 (antibody, V domains shown, parental murine anti-L1-CAM antibody; also called mouse E71; murine E71; copies: 2 + 2) VH: QVQLQQPGDELVKPGASVKLSCKASGYTFTSYWMQWVKQRPGQGLEWIGEINPSNGRTNYNEMFKSKATLTVDKSSSTAYMQLSSLTSEDSAVYYCALYDGYYAMDYWGQGTSVTVSS VL: DIVMSQSPSSLAVSVGEKVTMSCKSSQSLLYSSNQKNYLAWYQQKPGQSPKLLIYWASTRESGVPDRFTGSGSGTDFTLTISSVKAEDLALYYCQQYHSYPFTFGSGTKLEIK	–
–	–	–	4.26	–	huE71-H2L1 (antibody, human IgG1, kappa, V domains shown) VH: QVQLVQSGSELKKPGASVKLSCKASGYTFTSYWMQWVRQAPGQGLEWIGEINPSNGRTNYNEMFKSRAVLSVDTSVSTAYMQLCSLKAEDTAVYYCALYDGYYAMDYWGQGTLVTVSS VL: DIVMTQSPSSLAVSVGERVTMSCKSSQSLLYSSNQKNYLAWYQQKPGQSPKLLIYWASTRESGVPDRFSGSGSGTDFTLTISSVKAEDVALYYCQQYHSYPFTFGQGTKLEIKR	–
–	–	–	0.517	–	huE71-H1L2 (antibody, human IgG1, kappa, V domains shown) VH: QVQLVQPGDELVKPGASVKLSCKASGYTFTSYWMQWVKQRPGQGLEWIGEINPSNGRTNYNEMFKSKAVLSVDKSVSTAYMQLSSLTAEDTAVYYCALYDGYYAMDYWGQGTLVTVSS VL: DIVMTQSPDSLAVSLGERVTMNCKSSQSLLYSSNQKNYLAWYQQKPGQPPKLLIYWASTRESGVPDRFSGSGSGTDFTLTISSLQAEDVALYYCQQYHSYPFTFGQGTKLEIKR	–
